Laboratory results reported in the supplement of paper PMC12458215.
± gives the uncertainty stated by the source.

System: HEK293T
Experiment: plasma membrane surface immunostaining intensity (anti-HA, deep receptor scanning) (arbitrary fluorescence units); higher = higher plasma membrane expression

Sequence | plasma membrane surface immunostaining intensity (GPCR class: A) | plasma membrane surface immunostaining intensity (GPCR class: A (Olfactory)) | other results
MAVQGSQRRLLGSLNSTPTAIPQLGLAANQTGARCLEVSISDGLFLSLGLVSLVENALVVATIAKNRNLHSPMYCFICCLALSDLLVSGSNVLETAVILLLEAGALVARAAVLQQLDNVIDVITCSSMLSSLCFLGAIAVDRYISIFYALRYHSIVTLPRARRAVAAIWVASVVFSTLFIAYYDHVAVLLCLVVFFLAMLVLMAVLYVHMLARACQHAQGIARLHKRQRPVHQGFGLKGAVTLTILLGIFFLCWGPFFLHLTLIVLCPEHPTCGCIFKNFNLFLALIICNAIIDPLIYAFHSQELRRTLKEVLTCSW [MC1R] | 299 ± 43 | – | –
MINSTSTQPPDESCSQNLLITQQIIPVLYCMVFIAGILLNGVSGWIFFYVPSSKSFIIYLKNIVIADFVMSLTFPFKILGDSGLGPWQLNVFVCRVSAVLFYVNMYVSIVFFGLISFDRYYKIVKPLWTSFIQSVSYSKLLSVIVWMLMLLLAVPNIILTNQSVREVTQIKCIELKSELGRKWHKASNYIFVAIFWIVFLLLIVFYTAITKKIFKSHLKSSRNSTSVKKKSSRNIFSIVFVFFVCFVPYHIARIPYTKSQTEAHYSCQSKEILRYMKEFTLLLSAANVCLDPIIYFFLCQPFREILCKKLHIPLKAQNDLDISRIKRGNTTLESTDTL [P2RY14] | 5190 ± 71 | – | –
MGTCDIVTEANISSGPESNTTGITAFSMPSWQLALWATAYLALVLVAVTGNAIVIWIILAHRRMRTVTNYFIVNLALADLCMAAFNAAFNFVYASHNIWYFGRAFCYFQNLFPITAMFVSIYSMTAIAADRYMAIVHPFQPRLSAPSTKAVIAGIWLVALALASPQCFYSTVTMDQGATKCVVAWPEDSGGKTLLLYHLVVIALIYFLPLAVMFVAYSVIGLTLWRRAVPGHQAHGANLRHLQAMKKFVKTMVLVVLTFAICWLPYHLYFILGSFQEDIYCHKFIQQVYLALFWLAMSSTMYNPIIYCCLNHRFRSGFRLAFRCCPWVTPTKEDKLELTPTTSLSTRVNRCHTKETLFMAGDTAPSEATSGEAGRPQDGSGLWFGYGLLAPTKTHVEI [TACR2] | 474 ± 41 | – | –
MGKTKNTSLDAVVTDFILLGLSHPPNLRSLLFLVFFIIYILTQLGNLLILLTMWADPKLCARPMYILLGVLSFLDMWLSSVTVPLLILDFTPSIKAIPFGGCVAQLYFFHFLGSTQCFLYTLMAYDRYLAICQPLRYPVLMNGRLCTVLVAGAWVAGSMHGSIQATLTFRLPYCGPNQVDYFICDIPAVLRLACADTTVNELVTFVDVGVVAASCFMLILLSYANIVNAILKIRTTDGRRRAFSTCGSHLIVVTVYYVPCIFIYLRAGSKDPLDGAAAVFYTVVTPLLNPLIYTLRNQEVKSALKRITAG [OR10G2] | – | 111 ± 16 | –
MQLNNNVTEFILLGLTQDPFWKKIVFVIFLRLYLGTLLGNLLIIISVKTSQALKNPMFFFLFYLSLSDTCLSTSITPRMIVDALLKKTTISFSECMIQVFSSHVFGCLEIFILILTAVDRYVDICKPLHYMTIISQWVCGVLMAVAWVGSCVHSLVQIFLALSLPFCGPNVINHCFCDLQPLLKQACSETYVVNLLLVSNSGAICAVSYVMLIFSYVIFLHSLRNHSAEVIKKALSTCVSHIIVVILFFGPCIFMYTCLATVFPMDKMIAVFYTVGTSFLNPVIYTLKNTEVKSAMRKLWSKKLITDDKR [OR4C16] | – | 162 ± 72 | –
MRFTFTSRCLALFLLLNHPTPILPAFSNQTYPTIEPKPFLYVVGRKKMMDAQYKCYDRMQQLPAYQGEGPYCNRTWDGWLCWDDTPAGVLSYQFCPDYFPDFDPSEKVTKYCDEKGVWFKHPENNRTWSNYTMCNAFTPEKLKNAYVLYYLAIVGHSLSIFTLVISLGIFVFFRSLGCQRVTLHKNMFLTYILNSMIIIIHLVEVVPNGELVRRDPVSCKILHFFHQYMMACNYFWMLCEGIYLHTLIVVAVFTEKQRLRWYYLLGWGFPLVPTTIHAITRAVYFNDNCWLSVETHLLYIIHGPVMAALVVNFFFLLNIVRVLVTKMRETHEAESHMYLKAVKATMILVPLLGIQFVVFPWRPSNKMLGKIYDYVMHSLIHFQGFFVATIYCFCNNEVQTTVKRQWAQFKIQWNQRWGRRPSNRSARAAAAAAEAGDIPIYICHQELRNEPANNQGEESAEIIPLNIIEQESSA [CALCR] | – | – | plasma membrane surface immunostaining intensity (GPCR class: B): 5000 ± 720
MNPENWTQVTSFVLLGFPSSHLIQFLVFLGLMVTYIVTATGKLLIIVLSWIDQRLHIQMYFFLRNFSFLELLLVTVVVPKMLVVILTGDHTISFVSCIIQSYLYFFLGTTDFFLLAVMSLDRYLAICRPLRYETLMNGHVCSQLVLASWLAGFLWVLCPTVLMASLPFCGPNGIDHFFRDSWPLLRLSCGDTHLLKLVAFMLSTLVLLGSLALTSVSYACILATVLRAPTAAERRKAFSTCASHLTVVVIIYGSSIFLYIRMSEAQSKLLNKGASVLSCIITPLLNPFIFTLRNDKVQQALREALGWPRLTAVMKLRVTSQRK [OR6T1] | – | 112 ± 19 | –
MDQFPESVTENFEYDDLAEACYIGDIVVFGTVFLSIFYSVIFAIGLVGNLLVVFALTNSKKPKSVTDIYLLNLALSDLLFVATLPFWTHYLINEKGLHNAMCKFTTAFFFIGFFGSIFFITVISIDRYLAIVLAANSMNNRTVQHGVTISLGVWAAAILVAAPQFMFTKQKENECLGDYPEVLQEIWPVLRNVETNFLGFLLPLLIMSYCYFRIIQTLFSCKNHKKAKAIKLILLVVIVFFLFWTPYNVMIFLETLKLYDFFPSCDMRKDLRLALSVTETVAFSHCCLNPLIYAFAGEKFRRYLYHLYGKCLAVLCGRSVHVDFSSSESQRSRHGSVLSSNFTYHTSDGDALLLL [CX3CR1] | 196 ± 34 | – | –
MTPNSTGEVPSPIPKGALGLSLALASLIITANLLLALGIAWDRRLRSPPAGCFFLSLLLAGLLTGLALPTLPGLWNQSRRGYWSCLLVYLAPNFSFLSLLANLLLVHGERYMAVLRPLQPPGSIRLALLLTWAGPLLFASLPALGWNHWTPGANCSSQAIFPAPYLYLEVYGLLLPAVGAAAFLSVRVLATAHRQLQDICRLERAVCRDEPSALARALTWRQARAQAGAMLLFGLCWGPYVATLLLSVLAYEQRPPLGPGTLLSLLSLGSASAAAVPVAMGLGDQRYTAPWRAAAQRCLQGLWGRASRDSPGPSIAYHPSSQSSVDLDLN [GPBAR1] | 5940 ± 84 | – | –
MVGDTLKLLSPLMTRYFFLLFYSTDSSDLNENQHPLDFDEMAFGKVKSGISFLIQTGVGILGNSFLLCFYNLILFTGHKLRPTDLILSQLALANSMVLFFKGIPQTMAAFGLKYLLNDTGCKFVFYYHRVGTRVSLSTICLLNGFQAIKLNPSICRWMEIKIRSPRFIDFCCLLCWAPHVLMNASVLLLVNGPLNSKNSSAKNNYGYCSYKASKRFSSLHAVLYFSPDFMSLGFMVWASGSMVFFLYRHKQQVQHNHSNRLSCRPSQEARATHTIMVLVSSFFVFYSVHSFLTIWTTVVANPGQWIVTNSVLVASCFPARSPFVLIMSDTHISQFCFACRTRKTLFPNLVVMP [VN1R1] | – | – | plasma membrane surface immunostaining intensity (GPCR class: Vomeronasal): 140 ± 8.3
MEMFTFLLTCIFLPLLRGHSLFTCEPITVPRCMKMAYNMTFFPNLMGHYDQSIAAVEMEHFLPLANLECSPNIETFLCKAFVPTCIEQIHVVPPCRKLCEKVYSDCKKLIDTFGIRWPEELECDRLQYCDETVPVTFDPHTEFLGPQKKTEQVQRDIGFWCPRHLKTSGGQGYKFLGIDQCAPPCPNMYFKSDELEFAKSFIGTVSIFCLCATLFTFLTFLIDVRRFRYPERPIIYYSVCYSIVSLMYFIGFLLGDSTACNKADEKLELGDTVVLGSQNKACTVLFMLLYFFTMAGTVWWVILTITWFLAAGRKWSCEAIEQKAVWFHAVAWGTPGFLTVMLLAMNKVEGDNISGVCFVGLYDLDASRYFVLLPLCLCVFVGLSLLLAGIISLNHVRQVIQHDGRNQEKLKKFMIRIGVFSGLYLVPLVTLLGCYVYEQVNRITWEITWVSDHCRQYHIPCPYQAKAKARPELALFMIKYLMTLIVGISAVFWVGSKKTCTEWAGFFKRNRKRDPISESRRVLQESCEFFLKHNSKVKHKKKHYKPSSHKLKVISKSMGTSTGATANHGTSAVAITSHDYLGQETLTEIQTSPETSMREVKADGASTPRLREQDCGEPASPAASISRLSGEQVDGKGQAGSVSESARSEGRISPKSDITDTGLAQSNNLQVPSSSEPSSLKGSTSLLVHPVSGVRKEQGGGCHSDT [FZD6] | – | – | plasma membrane surface immunostaining intensity (GPCR class: F): 329 ± 75
MVNQSSTPGFLLLGFSEHPGLERTLFVVVLTSYLLTLVGNTLIILLSALDPKLHSPMYFFLSNLSFLDLCFTTSCVPQMLVNLWGPKKTISFLDCSVQIFIFLSLGTTECILLTVMAFDRYVAVCQPLHYATIIHPRLCWQLASVAWVIGLVESVVQTPSTLHLPFCPDRQVDDFVCEVPALIRLSCEDTSYNEIQVAVASVFILVVPLSLILVSYGAITWAVLRINSAKGRRKAFGTCSSHLTVVTLFYSSVIAVYLQPKNPYAQERGKFFGLFYAVGTPSLNPLIYTLRNKEVTRAFRRLLGKEMGLTQS [OR2H2] | – | 145 ± 10 | –
MARPDPSAPPSLLLLLLAQLVGRAAAASKAPVCQEITVPMCRGIGYNLTHMPNQFNHDTQDEAGLEVHQFWPLVEIQCSPDLRFFLCSMYTPICLPDYHKPLPPCRSVCERAKAGCSPLMRQYGFAWPERMSCDRLPVLGRDAEVLCMDYNRSEATTAPPRPFPAKPTLPGPPGAPASGGECPAGGPFVCKCREPFVPILKESHPLYNKVRTGQVPNCAVPCYQPSFSADERTFATFWIGLWSVLCFISTSTTVATFLIDMERFRYPERPIIFLSACYLCVSLGFLVRLVVGHASVACSREHNHIHYETTGPALCTIVFLLVYFFGMASSIWWVILSLTWFLAAGMKWGNEAIAGYAQYFHLAAWLIPSVKSITALALSSVDGDPVAGICYVGNQNLNSLRGFVLGPLVLYLLVGTLFLLAGFVSLFRIRSVIKQGGTKTDKLEKLMIRIGIFTLLYTVPASIVVACYLYEQHYRESWEAALTCACPGHDTGQPRAKPEYWVLMLKYFMCLVVGITSGVWIWSGKTVESWRRFTSRCCCRPRRGHKSGGAMAAGDYPEASAALTGRTGPPGPAATYHKQVSLSHV [FZD5] | – | – | plasma membrane surface immunostaining intensity (GPCR class: F): 4020 ± 200
MEHTHAHLAANSSLSWWSPGSACGLGFVPVVYYSLLLCLGLPANILTVIILSQLVARRQKSSYNYLLALAAADILVLFFIVFVDFLLEDFILNMQMPQVPDKIIEVLEFSSIHTSIWITVPLTIDRYIAVCHPLKYHTVSYPARTRKVIVSVYITCFLTSIPYYWWPNIWTEDYISTSVHHVLIWIHCFTVYLVPCSIFFILNSIIVYKLRRKSNFRLRGYSTGKTTAILFTITSIFATLWAPRIIMILYHLYGAPIQNRWLVHIMSDIANMLALLNTAINFFLYCFISKRFRTMAAATLKAFFKCQKQPVQFYTNHNFSITSSPWISPANSHCIKMLVYQYDKNGKPIKVSP [GPR139] | 3010 ± 800 | – | –
MDSGPLWDANPTPRGTLSAPNATTPWLGRDEELAKVEIGVLATVLVLATGGNLAVLLTLGQLGRKRSRMHLFVLHLALTDLAVALFQVLPQLLWDITYRFQGPDLLCRAVKYLQVLSMFASTYMLLAMTLDRYLAVCHPLRSLQQPGQSTYLLIAAPWLLAAIFSLPQVFIFSLREVIQGSGVLDCWADFGFPWGPRAYLTWTTLAIFVLPVTMLTACYSLICHEICKNLKVKTQAWRVGGGGWRTWDRPSPSTLAATTRGLPSRVSSINTISRAKIRTVKMTFVIVLAYIACWAPFFSVQMWSVWDKNAPDEDSTNVAFTISMLLGNLNSCCNPWIYMGFNSHLLPRPLRHLACCGGPQPRMRRRLSDGSLSSRHTTLLTRSSCPATLSLSLSLTLSGRPRPEESPRDLELADGEGTAETIIF [AVPR1B] | 665 ± 110 | – | –
MMIKKNASSEDFFILLGFSNWPQLEVVLFVVILIFYLMTLTGNLFIIILSYVDSHLHTPMYFFLSNLSFLDLCHTTSSIPQLLVNLRGPEKTISYAGCMVQLYFVLALGIAECVLLVVMSYDRYVAVCRPLHYTVLMHPRFCHLLAAASWVIGFTISALHSSFTFWVPLCGHRLVDHFFCEVPALLRLSCVDTHANELTLMVMSSIFVLIPLILILTAYGAIARAVLSMQSTTGLQKVFRTCGAHLMVVSLFFIPVMCMYLQPPSENSPDQGKFIALFYTVVTPSLNPLIYTLRNKHVKGAAKRLLGWEWGK [OR2J2] | – | 82.9 ± 16 | –
